One test deals with HLA-C*12:03. The test can be described thus: IEDB peptide-MHC binding, purified MHC/direct/fluorescence; filed as Kd, often an IC50 or EC50 that approximates it; ≥ and ≤ were set here for values at or beyond the usual limits of such assays.
For test [1], the target named is HLA-A*03:01. The description is as above.
For test [2], the target named is HLA-B*15:01. The description is as above.
In another test the target is HLA-B*40:01. The test is described as above.
Test [3] addresses HLA-B*39:01. The test is described as above. Particulars: source organism: Bacillus anthracis str. A0465.
The target in the next test is HLA-C*05:01. Described as above.
For a further test, the target named is HLA-A*31:01. The description is as above.
Test [4] has as its target HLA-A*69:01. The test is described as above. Particulars: source organism: Bacillus anthracis.
In a further test the target is HLA-A*01:01. Described as above.
Test [5] concerns the target HLA-B*57:01. Described as above.
Another test concerns the target HLA-A*11:01. The test is described as above.
In the next test the target is HLA-B*58:01. The test is described as above.
For the next test, the target named is HLA-B*15:17. The test is described as above. Particulars: source organism: Bacillus anthracis.
Another test has as its target HLA-B*27:05. Described as above.
A further test addresses HLA-B*48:01. The test is described as above.
Test [6] has as its target HLA-B*46:01. The description is as above.
The target of another test is HLA-B*08:02. The description is as above. Particulars: source organism: Bacillus anthracis str. A0465.
In test [7] the target is HLA-A*02:01. In words: IEDB peptide-MHC binding, purified MHC/competitive/fluorescence; filed as Kd, often an IC50 or EC50 that approximates it; ≥ and ≤ were set here for values at or beyond the usual limits of such assays.
The target in a further test is HLA-A*02:06. The description is as above. Particulars: source organism: Bacillus cereus.
For another test, the target named is HLA-B*08:01. The test can be described thus: IEDB peptide-MHC binding, purified MHC/direct/fluorescence; filed as Kd, often an IC50 or EC50 that approximates it; ≥ and ≤ were set here for values at or beyond the usual limits of such assays. Particulars: source organism: Mycobacterium tuberculosis C.
Test [8] deals with HLA-A*02:01. The test is described as above. Particulars: source organism: Mycobacterium tuberculosis C.
The target in another test is HLA-B*44:02. Described as above. Particulars: source organism: Mycobacterium tuberculosis C.
For test [9], the target named is HLA-A*29:02. The test is described as above. Particulars: source organism: Mycobacterium tuberculosis C.
Another test has as its target HLA-B*15:42. In words: IEDB peptide-MHC binding, purified MHC/competitive/fluorescence; filed as Kd, often an IC50 or EC50 that approximates it; ≥ and ≤ were set here for values at or beyond the usual limits of such assays. Particulars: source organism: Mycobacterium tuberculosis H37Ra.
In the next test the target is HLA-B*83:01. The test is described as above. Particulars: source organism: Mycobacterium tuberculosis H37Ra.
For the next test, the target named is HLA-B*45:06. Described as above. Particulars: source organism: Mycobacterium tuberculosis H37Ra.
For a further test, the target named is HLA-B*51:01. Described as above. Particulars: source organism: Mycobacterium tuberculosis H37Ra.
For test [10], the target named is HLA-A*26:01. In words: IEDB peptide-MHC binding, purified MHC/direct/fluorescence; filed as Kd, often an IC50 or EC50 that approximates it; ≥ and ≤ were set here for values at or beyond the usual limits of such assays. Particulars: source organism: Mycobacterium tuberculosis variant bovis.
The target of another test is HLA-C*15:02. Described as above. Particulars: source organism: Mycobacterium tuberculosis variant bovis.
In a further test the target is HLA-A*02:11. In words: IEDB peptide-MHC binding, purified MHC/competitive/fluorescence; filed as Kd, often an IC50 or EC50 that approximates it; ≥ and ≤ were set here for values at or beyond the usual limits of such assays. Particulars: source organism: Entamoeba histolytica.
Another test addresses HLA-A*68:02. Described as above. Particulars: source organism: Entamoeba histolytica.
In test [11] the target is HLA-A*03:01. The description is as above. Particulars: source organism: Entamoeba histolytica.
Test [12] has as its target HLA-B*15:01. The description is as above. Particulars: source organism: Entamoeba histolytica.
The target in test [13] is HLA-B*39:01. The test is described as above. Particulars: source organism: Entamoeba histolytica.
Another test concerns the target HLA-B*27:03. The test is described as above. Particulars: source organism: Entamoeba histolytica.
For a further test, the target named is HLA-A*02:03. The test is described as above. Particulars: source organism: Entamoeba histolytica.
In test [14] the target is HLA-A*29:02. The description is as above. Particulars: source organism: Entamoeba histolytica.
In test [15] the target is HLA-A*69:01. The test is described as above. Particulars: source organism: Entamoeba histolytica.
The target of test [16] is HLA-B*57:01. The test is described as above. Particulars: source organism: Entamoeba histolytica.
Another test concerns the target HLA-A*02:16. The test is described as above. Particulars: source organism: Entamoeba histolytica.
The next test has as its target HLA-A*02:19. The test is described as above. Particulars: source organism: Entamoeba histolytica.
Test [17] deals with HLA-A*26:01. Described as above. Particulars: source organism: Entamoeba histolytica.
Test [18] has as its target HLA-B*46:01. Described as above. Particulars: source organism: Entamoeba histolytica.
The target of a further test is HLA-A*02:12. Described as above. Particulars: source organism: Entamoeba histolytica.
The mark [19] stands for this setting: source organism: Bacillus anthracis.
Setting [20] is: source organism: Bacillus cereus.
Setting [21] is: source organism: Mycobacterium tuberculosis C.
The mark [22] stands for this setting: source organism: Mycobacterium tuberculosis variant bovis.
Setting [23] is: source organism: Entamoeba histolytica.

A value given as a limit tells only on which side of the number the result lay.

The sequence AMAGNPVVI showed an equilibrium dissociation constant (Kd) with HLA-C*12:03 (source organism: Leishmania donovani) of 727 nM.
For the sequence MSDIFASEV, the equilibrium dissociation constant (Kd) with HLA-A*03:01 [1] (setting [19]) was at least 20 µM; with HLA-B*15:01 [2] (setting [19]) it was at least 20 µM; in the test with HLA-B*40:01 (setting [19]) it was at least 20 µM; with HLA-B*39:01 [3] it was 467 nM; with HLA-C*05:01 (setting [20]), at most 1 nM; with HLA-A*31:01 (setting [19]), at least 20 µM. Moreover, the Kd with HLA-A*69:01 [4] is at most 1 nM; with HLA-A*01:01 (setting [19]), 7.3 nM; in the test with HLA-B*57:01 [5] (setting [19]), at least 20 µM; with HLA-A*11:01 (setting [19]), at least 20 µM; with HLA-B*58:01 (setting [19]) it was at least 20 µM; with HLA-B*15:17, 2.1 nM. The dissociation constant (Kd) is at least 20 µM with HLA-B*27:05 (setting [19]); at least 20 µM in the test with HLA-B*48:01 (setting [19]); at least 20 µM with HLA-B*46:01 [6] (setting [19]); at least 20 µM in the test with HLA-B*08:02; 30.2 nM with HLA-A*02:01 [7] (setting [20]); 12.1 nM with HLA-A*02:06.
Turning to FPRYPLNVL, the Kd was 1040 nM in the test with HLA-B*08:01; at least 20 µM with HLA-A*03:01 [1] (setting [21]); at least 20 µM in the test with HLA-B*15:01 [2] (setting [21]); at least 20 µM with HLA-B*40:01 (setting [21]); at least 20 µM in the test with HLA-A*02:01 [8]; at least 20 µM with HLA-B*44:02. Also, the Kd is at least 20000 nM in the test with HLA-C*05:01 (source organism: Mycobacterium tuberculosis H37Ra); at least 20 µM with HLA-A*31:01 (setting [21]); at least 20 µM in the test with HLA-A*29:02 [9]; at least 20000 nM in the test with HLA-A*01:01 (setting [21]); at least 20 µM in the test with HLA-B*57:01 [5] (setting [21]); at least 20 µM with HLA-A*11:01 (setting [21]). Further, the Kd with HLA-B*58:01 (setting [21]) is at least 20 µM; in the test with HLA-B*27:05 (setting [21]), at least 20 µM; with HLA-B*48:01 (setting [21]) it was at least 20 µM; with HLA-B*46:01 [6] (setting [21]) it was at least 20 µM; with HLA-B*15:42, at least 5 µM; in the test with HLA-B*83:01, 2650 nM. Further, the Kd is at least 5 µM in the test with HLA-B*45:06 and at least 20 µM in the test with HLA-B*51:01.
For the sequence VTNDGVIFF, the Kd is 3 nM with HLA-C*05:01 (setting [22]), 319 nM in the test with HLA-C*12:03 (setting [22]), 1090 nM with HLA-A*26:01 [10] and at least 20 µM with HLA-C*15:02.
Turning to RASHFRKLF, the Kd in the test with HLA-C*12:03 (setting [23]) is 19 nM; in the test with HLA-A*02:11 it was at least 20 µM; with HLA-A*68:02, at least 20 µM; with HLA-A*03:01 [11], at least 20 µM; in the test with HLA-B*15:01 [12], at least 20 µM; with HLA-B*39:01 [13] it was at least 20 µM. In addition, the equilibrium dissociation constant (Kd) is at least 20000 nM with HLA-A*02:01 [7] (setting [23]); at least 20 µM with HLA-B*27:03; at least 20 µM in the test with HLA-A*02:03; at least 20 µM with HLA-A*29:02 [14]; at least 20 µM with HLA-A*69:01 [15]; 165 nM with HLA-B*57:01 [16]. Further, the dissociation constant (Kd) in the test with HLA-A*02:16, in the test with HLA-A*02:19, with HLA-A*26:01 [17], in the test with HLA-B*46:01 [18] and with HLA-A*02:12 was at least 20 µM in each case.

What is called Kd is a measure of binding affinity in units of concentration. Low values mean tighter binding, high ones weaker binding.
